# From US20120088276
# T1: E. coli (strain K12) RecA protein, wild type
# T1 chain: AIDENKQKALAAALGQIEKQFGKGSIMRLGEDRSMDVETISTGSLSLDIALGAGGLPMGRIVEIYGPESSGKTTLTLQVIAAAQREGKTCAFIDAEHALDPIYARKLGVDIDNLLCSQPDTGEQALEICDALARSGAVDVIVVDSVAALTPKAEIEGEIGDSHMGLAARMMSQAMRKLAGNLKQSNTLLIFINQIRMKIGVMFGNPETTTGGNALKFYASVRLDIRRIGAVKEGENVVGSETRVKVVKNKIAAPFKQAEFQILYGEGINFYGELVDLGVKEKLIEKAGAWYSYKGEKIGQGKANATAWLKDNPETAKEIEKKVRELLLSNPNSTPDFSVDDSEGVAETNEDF
# How the values were obtained:
# [1] = target: T1, E. coli (strain K12) RecA protein, wild …
protein,measurement,setting,value
bacteriophage P1 Ref protein (wild type) (protein) MKTIEQKIEQCRKWQKAARERAIARQREKLADPVWRESQYQKMRDTLDRRIAKQKERPPASKTRKSAVKIKSRGLKGRTPTAEERRIANALGALPCIACYMHGVISNEVSLHHIAGRTAPGCHKKQLPLCRWHHQHAAPAEVREKYPWLVPVHADGVVGGKKEFTLLNKSEMELLADAYEMANIMH,"nuclease activity (degradation of M13mp18 circular ssDNA, agarose gel)",[1],the nuclease activity depended on both Ref and active RecA filaments
same,"targeted cleavage of both strands of duplex DNA at RecA-created D-loops (restriction analysis, agarose gel)",RecA E38K mutant protein,the Ref-induced breaks in the circular double stranded DNA occur where the RecA-bound oligonucleotide invaded the duplex DNA to form a D-loop
